Like-named read-outs stand apart in the source and are kept apart here.
How the values were obtained:
[1] = test system: EL-4 murine T-lymphoma cells; test: IL-18 combination with doxorubicin in EL-4 T cell lymphoma (survival, increase in lifespan); assay type: in vivo, C57/BL/6 mice
Experimental: Studies were performed in female C57/BL/6 mice. As a general protocol, C57/BL mice were injected I.P. with 0.2 cc of stock EL-4 cells. EL-4 murine T-lymphoma cells were expanded in RPMI w/10% FCS. All animals were randomized to six or seven mice per study group with food and water ad libitum.
EL-4 cells were harvested on day 0, counted and implanted I.P. with 5×10^5 EL-4 lymphoma cells. Animals were randomized to treatment groups of 6/7 animals on Day 3. Doxorubicin was administered IV on Days 3 &10, pos-implantation. mIL-18 (SEQ ID NO:2) was administered S.C. on Days 3-16. The animals were observed daily for toxicity and mortality.
All animals tolerated dosing schedule and levels well by gross observation. On day 16, all dosing was terminated, and median vehicle death occurred on day 17.5. All vehicle mice expired between days 16-18 post-implantation. Increase in lifespan was calculated by study group/vehicle group—1×100%. For mIL-18 (SEQ ID NO:2) combination therapy with doxorubicin in EL-4 T cell lymphoma, the data were analyzed with respect to median survival time and increase in lifespan.

[2] = test system: NK cells; test: NK cytotoxicity assay in the EL-4 T-cell lymphoma model; settings: FIG. 12; 21 hours post-treatment
[3] = cited from earlier work
[4] = test system: murine colon carcinoma, Colo 26; test: IL-18 and 5-FU combination therapy in syngeneic model of murine colon cancer Colo26; assay type: in vivo, BALB/c mice; settings: monotherapy with 5-FU alone or mIL-18 alone
Experimental: This study aimed to evaluate the efficacy of mIL-18 (SEQ ID NO:2) combination therapy with 5-fluorouracil (5-FU), as compared to monotherapy with 5-FU, or mIL-18 (SEQ ID NO:2) alone. Our study was performed in a well established syngeneic subcutaneous model of murine colon carcinoma, Colo 26, in BALB/c mice. The dosing with mIL-18 (SEQ ID NO:2) was performed daily with 10 μg/mouse s.c. on days 10-30 after tumor inoculation. The dosing with 5-FU was performed i.p. twice a week in the ascending dose: 27, 45 and 74 μg/mouse.
The data comparing tumor volumes in different treatment groups were evaluated at a selected representative time-point, and were expressed as mean+/−SD (FIG. 21), and as median+/−range (FIG. 22). The data were first checked for normal distribution (Gaussian approximation), and standard deviation values were compared to make sure that there is an equal variance. […] Therefore, a non-parametric test (Kruskal-Wallis analysis and Dunn's comparison test) was used for the statistical evaluation. […] FIG. 24 (median+/−SD) and FIG. 25 (mean+/−SD) show the effect of IL-18 and 5-FU combination therapy in same Colo26 syngeneic colon tumor model. […]
Survival of mice bearing Colo26 in different treatment groups was plotted in a Kaplan-Meyer survival curve analysis, and evaluated by Logrank test, and is shown in FIG. 26. […]

[5] = test system: MOPC-315 plasmacytoma; test: IL-18 monotherapy in advanced MOPC-315 plasmacytoma model; assay type: in vivo, mice
[6] = test system: NK cells

Molecule: COc1cccc2c1C(=O)c1c(O)c3c(c(O)c1C2=O)C[C@@](O)(C(=O)CO)C[C@@H]3O[C@H]1C[C@H](N)[C@H](O)[C@H](C)O1 [doxorubicin, Doxorubicin, reference compound]
- increase in lifespan ([1]; doxorubicin monotherapy, 12 mg/kg, IV days 3 & 10): minimal increase in lifespan
- NK cytotoxicity [2]: impaired

Molecule: human IL-18: recombinant mature form of human interleukin-18, expressed in a non-pathogenic strain of Escherichia coli
- toxicity at the highest dose tested ([3]; 2000 μg/kg administered weekly for up to 24 weeks, patients with renal cell carcinoma and metastatic melanoma): no significant toxicity
- maximum tolerated dose ([3]; doses up to 2000 μg/kg weekly for up to 24 weeks): not identified

Molecule: O=c1[nH]cc(F)c(=O)[nH]1 [5-FU, 5-fluorouracil, reference compound]
- therapeutic effect on tumor growth compared to control [4]: did not show a therapeutic effect better than a control

B1: mIL-18: Recombinant murine IL-18 (SEQ ID NO:2), used in the pre-clinical studies (protein)
chain: NFGRLHCTTAVIRNINDQVLFVDKRQPVFEDMTDIDQSASEPQTRLIIYMYKDSEVRGLAVTLSVKDSKMSTLSCKNKIISFEEMDPPENIDDIQSDLIFFQKRVPGHNKMEFESSLYEGHFLACQKEDDAFKLILKKKDENGDKSVMFTLTNLHQS
modifications: Murine
- anti-tumor effect ([5]; advanced tumor, 5 mg/Kg daily for approximately 30 days): reproducible tumor regressions and cure
- outcome of rechallenge with parental tumor ([5]; after cure by murine IL-18): tumor rejection
- anti-tumor effect in SCID mice ([5]; severe combined immunodeficient mice bearing advanced MOPC-315 tumors, similar schedule): failed to regress
- therapeutic effect on tumor growth compared to control [4]: did not show a therapeutic effect better than a control
- increase in lifespan ([1]; IL-18 monotherapy at 1, 5 and 25 ug/dose, S.C. days 3-16): did not show any increase in lifespan
- NK cytotoxicity [6]: robust NK cytotoxicity
